Experimental data from patent publication US11376333B2, “mTG substrates for covalent conjugation of compounds” (COVALAB, priority 2013, dated 2022).

Experiments:
[1] = molecular target: T1, microbial transglutaminase (mTG) (Streptomyces mobaraensis, UniProt P81453); assay: Colorimetric assay: mTG incorporation of biotinylated peptides into immobilized spermine, apparent Km; format: biochemical; conditions: biotinylated peptides, spermine plate
T1 construct: purchased Covalab, France opr 0054
T1 sequence (P81453 77-407): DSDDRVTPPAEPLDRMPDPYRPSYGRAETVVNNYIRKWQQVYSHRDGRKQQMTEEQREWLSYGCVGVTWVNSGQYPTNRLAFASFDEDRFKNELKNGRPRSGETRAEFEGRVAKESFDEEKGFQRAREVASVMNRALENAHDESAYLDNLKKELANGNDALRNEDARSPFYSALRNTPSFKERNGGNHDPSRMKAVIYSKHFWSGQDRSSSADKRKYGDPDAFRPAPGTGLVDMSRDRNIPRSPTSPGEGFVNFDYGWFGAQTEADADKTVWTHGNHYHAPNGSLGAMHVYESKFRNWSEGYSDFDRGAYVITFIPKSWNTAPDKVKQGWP
Excerpt: To produce the Covabtest-spm plate, the procedure previously described in Mily et al (2009) was used.
For the screening of the peptide listed in table 2 (Biotinylated peptides) the inventors used our colorimetric assay to measure transglutaminase 2 (TG2) cross linking activity (Mily et al, 2009) and commercialized under ref opr0033 in which mTG was used instead of TG2 and described in this experience. The principle of the method is based on the transamidation activity of mTG, using covalently coupled spermine to carboxy-substituted polystyrene plates and biotinylated peptides. The assay consists of the incorporation of the glutamine gamma-carboxamide group into the immobilized spermine. The amount of biotinylated peptide bound to the plate, as measured by the activity of streptavidin-peroxidase, is directly proportional to the TG activity. Absorbance was measured at 450 nm using the microplate reader.
In order to compare the affinity of mTG to the preferred substrate, the peptides were used at different concentrations ranging from 160, 80, 40, 20, 10, 5, 2.5 and 0 μM. Then the apparent Km were determined for each peptide and were calculated by Lineweaver-Burk method (1/Absorbance=f(1/[mTG (μM)]).
In this experiment, spermine was conjugated into the plate as described in B-II-4. Biotinylated peptides described in table 3 were incubated with mTG at different concentration (160, 80, 40, 20, 10, 5, 2.5 and 0 μM). […] Even if E seems to abolish the reactivity of the peptides this cannot be due to the negative charge only but also to the nature of the amino acides at the position X+1, X+2 and X+3. […] This is confirmed with LN-11Q8Q10 peptide.

[2] = molecular target: T2, human transglutaminase 2 (hTG2) (Homo sapiens, UniProt P21980); assay: TG2-mediated incorporation of biotin-cadaverine into peptides coupled on Covabtest plate; format: biochemical; conditions: same conditions as for mTG
T2 construct: purchased Covalab, France opr 0027
T2 sequence (P21980 1-687): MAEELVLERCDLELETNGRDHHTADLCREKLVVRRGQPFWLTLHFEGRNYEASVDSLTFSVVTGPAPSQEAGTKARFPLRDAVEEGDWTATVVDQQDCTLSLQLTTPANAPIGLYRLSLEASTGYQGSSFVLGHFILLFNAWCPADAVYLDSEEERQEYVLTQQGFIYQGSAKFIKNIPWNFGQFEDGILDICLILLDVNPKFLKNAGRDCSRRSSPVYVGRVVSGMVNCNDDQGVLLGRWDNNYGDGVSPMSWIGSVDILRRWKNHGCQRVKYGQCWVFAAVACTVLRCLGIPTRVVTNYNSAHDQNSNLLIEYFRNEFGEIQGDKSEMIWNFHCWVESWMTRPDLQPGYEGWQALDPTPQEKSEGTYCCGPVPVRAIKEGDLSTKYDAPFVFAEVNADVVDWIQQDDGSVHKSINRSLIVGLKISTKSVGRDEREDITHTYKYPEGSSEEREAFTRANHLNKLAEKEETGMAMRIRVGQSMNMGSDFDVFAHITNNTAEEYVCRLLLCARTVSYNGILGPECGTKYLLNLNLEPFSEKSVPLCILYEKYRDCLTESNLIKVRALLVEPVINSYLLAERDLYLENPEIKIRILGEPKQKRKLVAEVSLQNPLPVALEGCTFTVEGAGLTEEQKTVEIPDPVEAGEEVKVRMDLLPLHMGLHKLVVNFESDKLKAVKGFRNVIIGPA
Experimental: The coupling method was previously described by the Applicant (V. Thomas et al, 2004) and also in the corresponding data sheet of CovAbtest-Plate™ which is commercially available from Covalab (Ref #opr0004). Briefly, in separate tubes a solution mixture containing 150 μM of each peptide dissolved in 10 mM phosphate buffer pH5, 5 mM EDAC and 5 mM NHS was incubated for 30 min under gentle shaking. The resulting activated NHS-carboxyl C-terminal moiety of each peptide (15 nmoles) was used to be conjugated in each well of CovAbtest-Plate™ previously deprotonated during 15 min with 150 μl 0.6% sodium bicarbonate per well. The microtiter plate was then incubated during 2 hrs at room temperature and washed extensively with Tris Buffer Saline.
For this experiment we used the same procedures described by V Thomas et all (2004) and also in the Covalab's commercialized kit (opr0033). Briefly the Lyophilized transglutaminase was reconstituted in 40 mM tris buffer pH 8 and 50 μl of each mTG at 200 ng/ml and at 40 ng/ml were added in the wells containing 50 μl of biotin-X-cadaverine. The enzymatic mixture was incubated for 15 min at room temperature under gentle shaking. […] Absorbances at 450 nm were measured using a microplate reader (Multiskan, Labsystems, Helsinki, Finland). […]

HDLMWPDVYSQH (Peptide HH12Q11)
reactivity of peptide with mTG (text on Table 3) [1]: highly reactive with mTG
reactivity as substrate for TG2 incorporation of biot-cad [2]: less reactivity with TG2 than mTG
